The test has as its target T1, recombinant human TLR4 (Toll-like receptor 4) (human, UniProt O00206 24-631).
T1 construct: Toll-like receptor 4, human, recombinant; No catalogue number is printed; also called rTLR4; source: bought: R&D Systems
Kind of test: SPR; Bio-Rad ProteOn XPR36, GLC chip; Bethyl PBEF antibody covalently immobilised (5000 RU); rPBEF only (100 nM), rTLR4 only (1 uM) and pre-mixed rPBEF-rTLR4 injected over the antibody surface; PBST (10 mM phosphate, 150 mM NaCl, 0.05% Tween20, pH 7.4). As to conditions: both partners purified. For orientation: Surface plasmon resonance follows binding to a sensor surface in real time, without labels.

T1 sequence (O00206 24-631): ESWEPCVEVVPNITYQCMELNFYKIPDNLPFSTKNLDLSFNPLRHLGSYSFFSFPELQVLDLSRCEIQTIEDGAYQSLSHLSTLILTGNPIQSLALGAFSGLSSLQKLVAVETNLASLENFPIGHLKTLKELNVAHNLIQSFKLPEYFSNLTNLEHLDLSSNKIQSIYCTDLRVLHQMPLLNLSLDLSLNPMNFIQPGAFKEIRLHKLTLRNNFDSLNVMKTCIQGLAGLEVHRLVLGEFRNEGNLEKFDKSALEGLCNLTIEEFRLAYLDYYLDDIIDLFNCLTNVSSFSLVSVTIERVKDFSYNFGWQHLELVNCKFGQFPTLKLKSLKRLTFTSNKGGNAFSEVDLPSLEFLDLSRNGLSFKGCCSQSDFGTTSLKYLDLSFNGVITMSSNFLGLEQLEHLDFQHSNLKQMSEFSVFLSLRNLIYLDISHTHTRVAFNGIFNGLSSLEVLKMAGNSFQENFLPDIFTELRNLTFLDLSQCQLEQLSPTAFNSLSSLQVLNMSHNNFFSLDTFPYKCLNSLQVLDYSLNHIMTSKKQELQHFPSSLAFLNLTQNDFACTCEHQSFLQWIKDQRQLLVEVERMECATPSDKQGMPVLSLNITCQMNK

B1: recombinant human NAMPT/PBEF (nicotinamide phosphoribosyl-transferase / pre-B cell colony-enhancing factor) (natural protein, UniProt P43490 1-491, looked up)
chain: MNPAAEAEFNILLATDSYKVTHYKQYPPNTSKVYSYFECREKKTENSKLRKVKYEETVFYGLQYILNKYLKGKVVTKEKIQEAKDVYKEHFQDDVFNEKGWNYILEKYDGHLPIEIKAVPEGFVIPRGNVLFTVENTDPECYWLTNWIETILVQSWYPITVATNSREQKKILAKYLLETSGNLDGLEYKLHDFGYRGVSSQETAGIGASAHLVNFKGTDTVAGLALIKKYYGTKDPVPGYSVPAAEHSTITAWGKDHEKDAFEHIVTQFSSVPVSVVSDSYDIYNACEKIWGEDLRHLIVSRSTQAPLIIRPDSGNPLDTVLKVLEILGKKFPVTENSKGYKLLPPYLRVIQGDGVDINTLQEIVEGMKQKMWSIENIAFGSGGGLLQKLTRDLLNCSFKCSYVVTNGLGINVFKDPVADPNKRSKKGRLSLHRTPAGNFVTLEEGKGDLEEYGQDLLHTVFKNGKVTKSYSFDEIRKNAQLNIELEAAHH
notes: nicotinamide phosphoribosyl-transferase (NAMPT/PBEF/visfatin), human, bioactive non-denatured recombinant protein; also called rPBEF; visfatin; source: bought: MBL International
For B1, the binding result is “binds”.

For the origin of these results see PMC4536637, “Unique Toll-Like Receptor 4 Activation by NAMPT/PBEF Induces NFκB Signaling and Inflammatory Lung Injury” (Scientific Reports, 2015).
